37 variants from the Human Domainome abundance scans (Beltran et al. 2025) can be followed below.

± gives the uncertainty stated by the source.

The chains are these.
B1: Far upstream element-binding protein 2, residues 142 to 214; numbered along this chain, Q92945 (parent)
chain: RTSMTEEYRVPDGMVGLIIGRGGEQINKIQQDSGCKVQISPDSGGLPERSVSLTGAPESVQKAKMMLDDIVSR

Variants of B1 are the subject of the data set. The experiment in a line: abundance fitness (aPCA) (normalised: wild type 0, dead -1); higher = more abundant; growth selection in yeast, the domain comes from the species named. Conditions: Homo sapiens.
In the case of RTSMTEEYRVPDGMVGLIIGRGGEQINKIEQDSGCKVQISPDSGGLPERSVSLTGAPESVQKAKMMLDDIVSR, the abundance fitness is -0.067 ± 0.053.
The same measure for RTSMTEEYRVPDGMVGLIIGRGGEQINKIAQDSGCKVQISPDSGGLPERSVSLTGAPESVQKAKMMLDDIVSR: -0.067 ± 0.042; for RTSMTEEYRVPDGMVGLIIGRGGEQINKINQDSGCKVQISPDSGGLPERSVSLTGAPESVQKAKMMLDDIVSR: -0.455 ± 0.11; for RTSMTEEYRVPDGMVGLIIGRGGEQINKICQDSGCKVQISPDSGGLPERSVSLTGAPESVQKAKMMLDDIVSR: -0.12 ± 0.069.
With RTSMTEEYRVPDGMVGLIIGRGGEQINKIKQDSGCKVQISPDSGGLPERSVSLTGAPESVQKAKMMLDDIVSR, the abundance fitness was -0.181 ± 0.065.
The value for RTSMTEEYRVPDGMVGLIIGRGGEQINKIHQDSGCKVQISPDSGGLPERSVSLTGAPESVQKAKMMLDDIVSR was -0.384 ± 0.088; that for RTSMTEEYRVPDGMVGLIIGRGGEQINKIMQDSGCKVQISPDSGGLPERSVSLTGAPESVQKAKMMLDDIVSR was 0.107 ± 0.066; that for RTSMTEEYRVPDGMVGLIIGRGGEQINKIGQDSGCKVQISPDSGGLPERSVSLTGAPESVQKAKMMLDDIVSR was -0.24 ± 0.038.
The value for RTSMTEEYRVPDGMVGLIIGRGGEQINKIPQDSGCKVQISPDSGGLPERSVSLTGAPESVQKAKMMLDDIVSR was -0.809 ± 0.063; that for RTSMTEEYRVPDGMVGLIIGRGGEQINKIDQDSGCKVQISPDSGGLPERSVSLTGAPESVQKAKMMLDDIVSR was -1.02 ± 0.095; that for RTSMTEEYRVPDGMVGLIIGRGGEQINKIFQDSGCKVQISPDSGGLPERSVSLTGAPESVQKAKMMLDDIVSR was -0.252 ± 0.11.
The value for RTSMTEEYRVPDGMVGLIIGRGGEQINKILQDSGCKVQISPDSGGLPERSVSLTGAPESVQKAKMMLDDIVSR was -0.241 ± 0.049; that for RTSMTEEYRVPDGMVGLIIGRGGEQSNKIQQDSGCKVQISPDSGGLPERSVSLTGAPESVQKAKMMLDDIVSR was -0.693 ± 0.055.
Turning to RTSMTEEYRVPDGMVGLIIGRGGEQPNKIQQDSGCKVQISPDSGGLPERSVSLTGAPESVQKAKMMLDDIVSR, the abundance fitness is -0.639 ± 0.065.
The same measure for RTSMTEEYRVPDGMVGLIIGRGGEQKNKIQQDSGCKVQISPDSGGLPERSVSLTGAPESVQKAKMMLDDIVSR: -0.352 ± 0.068; for RTSMTEEYRVPDGMVGLIIGRGGEQWNKIQQDSGCKVQISPDSGGLPERSVSLTGAPESVQKAKMMLDDIVSR: -0.215 ± 0.11; for RTSMTEEYRVPDGMVGLIIGRGGEQHNKIQQDSGCKVQISPDSGGLPERSVSLTGAPESVQKAKMMLDDIVSR: -0.485 ± 0.091.
The value for RTSMTEEYRVPDGMVGLIIGRGGEQVNKIQQDSGCKVQISPDSGGLPERSVSLTGAPESVQKAKMMLDDIVSR was -0.146 ± 0.05; that for RTSMTEEYRVPDGMVGLIIGRGGEQQNKIQQDSGCKVQISPDSGGLPERSVSLTGAPESVQKAKMMLDDIVSR was -0.35 ± 0.06; that for RTSMTEEYRVPDGMVGLIIGRGGEQMNKIQQDSGCKVQISPDSGGLPERSVSLTGAPESVQKAKMMLDDIVSR was -0.054 ± 0.086.
The same measure for RTSMTEEYRVPDGMVGLIIGRGGEQFNKIQQDSGCKVQISPDSGGLPERSVSLTGAPESVQKAKMMLDDIVSR: -0.492 ± 0.11; for RTSMTEEYRVPDGMVGLIIGRGGEQYNKIQQDSGCKVQISPDSGGLPERSVSLTGAPESVQKAKMMLDDIVSR: -0.769 ± 0.23.
In the case of RTSMTEEYRVPDGMVGLIIGRGGEQGNKIQQDSGCKVQISPDSGGLPERSVSLTGAPESVQKAKMMLDDIVSR, the abundance fitness is -0.641 ± 0.04.
The same measure for RTSMTEEYRVPDGMVGLIIGRGGEQNNKIQQDSGCKVQISPDSGGLPERSVSLTGAPESVQKAKMMLDDIVSR: -0.852 ± 0.17; for RTSMTEEYRVPDGMVGLIIGRGGEQTNKIQQDSGCKVQISPDSGGLPERSVSLTGAPESVQKAKMMLDDIVSR: -0.451 ± 0.061; for RTSMTEEYRVPDGMVGLIIGRGGEQRNKIQQDSGCKVQISPDSGGLPERSVSLTGAPESVQKAKMMLDDIVSR: -0.533 ± 0.039.
Turning to RTSMTEEYRVPDGMVGLIIGRGGEQITKIQQDSGCKVQISPDSGGLPERSVSLTGAPESVQKAKMMLDDIVSR, the abundance fitness was determined as 0.007 ± 0.049.
The same measure for RTSMTEEYRVPDGMVGLIIGRGGEQILKIQQDSGCKVQISPDSGGLPERSVSLTGAPESVQKAKMMLDDIVSR: -0.076 ± 0.043; for RTSMTEEYRVPDGMVGLIIGRGGEQIEKIQQDSGCKVQISPDSGGLPERSVSLTGAPESVQKAKMMLDDIVSR: -0.006 ± 0.078; for RTSMTEEYRVPDGMVGLIIGRGGEQIHKIQQDSGCKVQISPDSGGLPERSVSLTGAPESVQKAKMMLDDIVSR: -0.094 ± 0.077.
The value for RTSMTEEYRVPDGMVGLIIGRGGEQISKIQQDSGCKVQISPDSGGLPERSVSLTGAPESVQKAKMMLDDIVSR was -0.054 ± 0.044; that for RTSMTEEYRVPDGMVGLIIGRGGEQIDKIQQDSGCKVQISPDSGGLPERSVSLTGAPESVQKAKMMLDDIVSR was -0.029 ± 0.1.
On to RTSMTEEYRVPDGMVGLIIGRGGEQIMKIQQDSGCKVQISPDSGGLPERSVSLTGAPESVQKAKMMLDDIVSR, for which the abundance fitness was -0.085 ± 0.069.
The value for RTSMTEEYRVPDGMVGLIIGRGGEQIQKIQQDSGCKVQISPDSGGLPERSVSLTGAPESVQKAKMMLDDIVSR was -0.018 ± 0.053; that for RTSMTEEYRVPDGMVGLIIGRGGEQIKKIQQDSGCKVQISPDSGGLPERSVSLTGAPESVQKAKMMLDDIVSR was 0.013 ± 0.057.
The same measure for RTSMTEEYRVPDGMVGLIIGRGGEQIRKIQQDSGCKVQISPDSGGLPERSVSLTGAPESVQKAKMMLDDIVSR: 0.017 ± 0.035.
The same measure for RTSMTEEYRVPDGMVGLIIGRGGEQIIKIQQDSGCKVQISPDSGGLPERSVSLTGAPESVQKAKMMLDDIVSR: -0.109 ± 0.086.
